Biological target: transcriptional activation domain of ATF6α
Assay: affinity purification with mass spectrometry; Mediator enriched from wild-type and MED26 hypomorphic HEK293T cells by binding to the ATF6α transcriptional activation domain (glutathione affinity); semi-quantitative MudPIT

“mutant MED26 that lacks the NTD (from UniProt O95402 1-600) (natural protein)” showed a level in Mediator relative to wild-type MED26 of 30 to 50%.

From publication PMC7044329
